T1: LNX2_2, Q8N448
T1 sequence (Q8N448 334-432, limits assumed, looked up): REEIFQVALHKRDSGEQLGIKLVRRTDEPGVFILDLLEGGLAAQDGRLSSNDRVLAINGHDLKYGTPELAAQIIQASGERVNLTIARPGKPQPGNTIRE

T2: SHANK1, Q9Y566
T2 sequence (Q9Y566 658-767, limits assumed, looked up): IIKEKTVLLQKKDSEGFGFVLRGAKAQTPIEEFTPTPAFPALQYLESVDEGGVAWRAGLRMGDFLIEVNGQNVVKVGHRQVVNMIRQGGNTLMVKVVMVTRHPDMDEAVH

T3: MPP2, Q14168
T3 sequence (Q14168 180-250, limits assumed, looked up): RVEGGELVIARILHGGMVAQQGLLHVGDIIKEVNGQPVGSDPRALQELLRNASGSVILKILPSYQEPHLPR

T4: SIPA1L2, Q9P2F8
T4 sequence (Q9P2F8 945-1036, limits assumed, looked up): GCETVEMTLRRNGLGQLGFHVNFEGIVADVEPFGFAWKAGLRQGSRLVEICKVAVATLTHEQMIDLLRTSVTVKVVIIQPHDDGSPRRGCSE

T5: PDZD7_3, Q9H5P4
T5 sequence (Q9H5P4 857-944, limits assumed, looked up): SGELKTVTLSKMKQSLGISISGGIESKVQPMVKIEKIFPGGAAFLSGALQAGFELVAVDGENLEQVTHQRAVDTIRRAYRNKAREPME

T6: DFNB31_2, Q9P202
T6 sequence (Q9P202 274-371, limits assumed, looked up): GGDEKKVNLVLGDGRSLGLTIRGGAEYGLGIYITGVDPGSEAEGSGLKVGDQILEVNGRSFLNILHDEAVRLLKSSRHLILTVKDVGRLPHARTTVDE

T7: PARD3B_1, Q8TEW8
T7 sequence (Q8TEW8 196-299, limits assumed, looked up): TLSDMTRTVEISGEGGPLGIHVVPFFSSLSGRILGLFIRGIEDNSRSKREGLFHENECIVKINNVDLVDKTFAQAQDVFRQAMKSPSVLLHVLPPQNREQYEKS

T8: PTPN13_1, Q12923
T8 sequence (Q12923 1088-1188, limits assumed, looked up): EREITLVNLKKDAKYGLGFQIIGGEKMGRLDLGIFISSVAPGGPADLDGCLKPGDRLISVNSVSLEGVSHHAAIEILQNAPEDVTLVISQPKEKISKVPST

T9: CARD11, Q9BXL7
T9 sequence (Q9BXL7 662-765, limits assumed, looked up): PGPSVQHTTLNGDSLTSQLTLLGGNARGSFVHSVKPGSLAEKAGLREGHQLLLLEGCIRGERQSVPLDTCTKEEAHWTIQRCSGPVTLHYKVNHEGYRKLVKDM

T10: SNTG2, Q9NY99
T10 sequence (Q9NY99 68-166, limits assumed, looked up): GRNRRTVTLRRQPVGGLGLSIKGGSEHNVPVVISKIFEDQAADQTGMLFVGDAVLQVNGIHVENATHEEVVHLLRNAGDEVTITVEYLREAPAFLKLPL

T11: GRIP1_4, Q9Y3R0
T11 sequence (Q9Y3R0 467-571, limits assumed, looked up): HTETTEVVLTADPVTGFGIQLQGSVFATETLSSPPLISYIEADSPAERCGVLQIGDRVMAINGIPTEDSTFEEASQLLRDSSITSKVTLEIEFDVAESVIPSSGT

T12: DFNB31_1, Q9P202
T12 sequence (Q9P202 135-233, limits assumed, looked up): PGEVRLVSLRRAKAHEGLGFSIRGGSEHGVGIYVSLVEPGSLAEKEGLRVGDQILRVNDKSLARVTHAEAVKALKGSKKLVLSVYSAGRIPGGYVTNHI


Assays:
Assay in all cases: holdup assay
Design in all cases: key: below the threshold = too weak to quantify, mostly under pKd 3.1 to 4
Conditions in all cases: plain residues with an end cap or a label only (N-terminal biotin on a linker: ado-ado)
[1] = target: Inadl_9, Q8NI35
[2] = target: T1, LNX2_2, Q8N448
[3] = target: GRID2IP_2, A4D2P6
[4] = target: MAGI2_6, Q86UL8
[5] = target: T2, SHANK1, Q9Y566
[6] = target: T3, MPP2, Q14168
[7] = target: DLG4_1, P78352
[8] = target: SCRIB_3, Q14160
[9] = target: NHERF2_2, Q15599
[10] = target: LNX1_1, Q8TBB1
[11] = target: GIPC2, Q8TF65
[12] = target: T4, SIPA1L2, Q9P2F8
[13] = target: T5, PDZD7_3, Q9H5P4
[14] = target: GRASP, Q7Z6J2
[15] = target: T6, DFNB31_2, Q9P202
[16] = target: IL16_1, Q14005
[17] = target: T7, PARD3B_1, Q8TEW8
[18] = target: LDB3, O75112
[19] = target: T8, PTPN13_1, Q12923
[20] = target: T9, CARD11, Q9BXL7
[21] = target: T10, SNTG2, Q9NY99
[22] = target: T11, GRIP1_4, Q9Y3R0
[23] = target: NHERF4_1, Q86UT5-2
[24] = target: MAGI1_1, Q96QZ7
[25] = target: T12, DFNB31_1, Q9P202

Sequence of GIPC2, Q8TF65 (Q8TF65 112-203): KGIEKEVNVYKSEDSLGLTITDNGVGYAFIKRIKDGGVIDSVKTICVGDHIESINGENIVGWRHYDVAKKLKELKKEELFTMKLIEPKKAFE
Sequence of DLG4_1, P78352 (P78352 62-152): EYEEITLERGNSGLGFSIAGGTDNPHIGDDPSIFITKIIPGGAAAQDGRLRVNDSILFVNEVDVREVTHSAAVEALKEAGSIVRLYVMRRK
Sequence of NHERF2_2, Q15599 (Q15599 142-238): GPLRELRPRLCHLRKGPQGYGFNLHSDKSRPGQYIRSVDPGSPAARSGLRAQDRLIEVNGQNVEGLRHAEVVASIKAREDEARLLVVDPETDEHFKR
Sequence of GRID2IP_2, A4D2P6 (A4D2P6 272-370): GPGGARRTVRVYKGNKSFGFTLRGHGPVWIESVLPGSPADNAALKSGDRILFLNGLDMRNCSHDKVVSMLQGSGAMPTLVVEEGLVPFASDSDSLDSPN
Sequence of LDB3, O75112 (O75112 1-94): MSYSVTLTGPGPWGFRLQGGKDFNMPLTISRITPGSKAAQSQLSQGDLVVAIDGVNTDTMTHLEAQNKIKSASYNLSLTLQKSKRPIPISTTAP
Sequence of SCRIB_3, Q14160 (Q14160 999-1103): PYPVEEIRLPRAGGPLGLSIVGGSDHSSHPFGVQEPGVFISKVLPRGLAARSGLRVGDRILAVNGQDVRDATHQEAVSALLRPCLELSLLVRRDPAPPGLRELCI
Sequence of NHERF4_1, Q86UT5-2 (Q86UT5 other isoform, or with tags, fused parts or gaps): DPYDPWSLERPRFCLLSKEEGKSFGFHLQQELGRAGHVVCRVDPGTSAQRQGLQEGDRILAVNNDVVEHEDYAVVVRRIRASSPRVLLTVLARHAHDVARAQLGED
Sequence of MAGI1_1, Q96QZ7 (Q96QZ7 1-106): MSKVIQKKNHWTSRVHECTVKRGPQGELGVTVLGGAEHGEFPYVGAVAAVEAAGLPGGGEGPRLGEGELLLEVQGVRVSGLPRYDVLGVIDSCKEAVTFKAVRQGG
Sequence of IL16_1, Q14005 (Q14005 210-306): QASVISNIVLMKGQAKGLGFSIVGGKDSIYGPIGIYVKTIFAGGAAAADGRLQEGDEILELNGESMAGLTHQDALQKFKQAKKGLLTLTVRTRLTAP
Sequence of LNX1_1, Q8TBB1 (Q8TBB1 261-371): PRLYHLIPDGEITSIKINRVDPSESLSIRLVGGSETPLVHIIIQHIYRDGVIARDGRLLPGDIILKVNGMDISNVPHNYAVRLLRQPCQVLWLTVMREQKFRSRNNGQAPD
Sequence of MAGI2_6, Q86UL8 (Q86UL8 1141-1229): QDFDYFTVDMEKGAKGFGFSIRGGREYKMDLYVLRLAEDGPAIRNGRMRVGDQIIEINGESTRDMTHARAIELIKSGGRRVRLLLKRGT
Sequence of Inadl_9, Q8NI35 (Q8NI35 1530-1615): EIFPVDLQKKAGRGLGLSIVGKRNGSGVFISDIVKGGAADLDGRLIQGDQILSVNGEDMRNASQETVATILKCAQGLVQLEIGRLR
Sequence of GRASP, Q7Z6J2 (Q7Z6J2 96-193): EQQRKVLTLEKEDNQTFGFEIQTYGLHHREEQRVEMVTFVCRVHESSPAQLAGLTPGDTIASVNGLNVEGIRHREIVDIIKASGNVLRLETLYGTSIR

| Binder | pKd [1] | pKd [2] | pKd [3] | pKd [4] | pKd [5] | pKd [6] | pKd [7] | pKd [8] | pKd [9] | pKd [10] | pKd [11] | pKd [12] | pKd [13] | pKd [14] | pKd [15] | pKd [16] | pKd [17] | pKd [18] | pKd [19] | pKd [20] | further results |
| --- | --- | --- | --- | --- | --- | --- | --- | --- | --- | --- | --- | --- | --- | --- | --- | --- | --- | --- | --- | --- | --- |
| VYEVPVETKF [SLC26A3, P40879] | below the threshold | below the threshold | below the threshold | 4 | 4.63 | below the threshold | below the threshold | 4.44 | 5.04 | 3.85 | 3.53 | below the threshold | below the threshold | 3.81 | below the threshold | below the threshold | 4.19 | 3.55 | below the threshold | below the threshold | pKd [21]: below the threshold; pKd [22]: below the threshold; pKd [23]: 3.67; pKd [24]: below the threshold; pKd [25]: 4.21 |
| PSDSVGKDVF [EGLN1, Q9GZT9] | below the threshold | below the threshold | below the threshold | below the threshold | below the threshold | below the threshold | below the threshold | below the threshold | below the threshold | below the threshold | below the threshold | below the threshold | below the threshold | 3.7 | below the threshold | below the threshold | 3.5 | below the threshold | below the threshold | below the threshold | pKd [21]: below the threshold; pKd [22]: below the threshold; pKd [23]: below the threshold; pKd [24]: below the threshold; pKd [25]: 3.49 |
| THREVKFTSL [CD46, P15529] | below the threshold | below the threshold | 4.95 | 4.59 | 4.39 | below the threshold | below the threshold | 4.8 | 4.36 | 3.5 | below the threshold | below the threshold | 4.75 | 4.77 | 4.28 | below the threshold | 4.24 | below the threshold | below the threshold | below the threshold | pKd [21]: 4.05; pKd [22]: below the threshold; pKd [23]: 4.28; pKd [24]: below the threshold; pKd [25]: 3.82 |

— PMC9482650, “Quantitative fragmentomics allow affinity mapping of interactomes” (Nature Communications, 2022)
